Results as given in patent publication US20140087995A1 (published 2014).
Numbered stars: 1 amine (or outer) side, 2 acyl side, 3 side chain; on linkers, the order of the positions; unused ones are H or OH. Bridge positions count the residues as written; N and C are the ends. Side chains are listed from the residue outwards. Ends that are not written are not given here. * marks the point of attachment. C20 diacid = O=C(O)CCCCCCCCCCCCCCCCCCC(=O)*; γGlu = O=C(O)[C@H](CCC(=O)[*:2])N[*:1]; AEEA = NCCOCCOCC(=O)O

T1: human amylin receptor (amylin 3(a) receptor: human calcitonin receptor with RAMP-3) (human, UniProt P30988 25-474; O60896 24-148)
T1 construct: whole, on cells; also called hAmylin-R; hAmylinR
T1 sequence (looked up) 1: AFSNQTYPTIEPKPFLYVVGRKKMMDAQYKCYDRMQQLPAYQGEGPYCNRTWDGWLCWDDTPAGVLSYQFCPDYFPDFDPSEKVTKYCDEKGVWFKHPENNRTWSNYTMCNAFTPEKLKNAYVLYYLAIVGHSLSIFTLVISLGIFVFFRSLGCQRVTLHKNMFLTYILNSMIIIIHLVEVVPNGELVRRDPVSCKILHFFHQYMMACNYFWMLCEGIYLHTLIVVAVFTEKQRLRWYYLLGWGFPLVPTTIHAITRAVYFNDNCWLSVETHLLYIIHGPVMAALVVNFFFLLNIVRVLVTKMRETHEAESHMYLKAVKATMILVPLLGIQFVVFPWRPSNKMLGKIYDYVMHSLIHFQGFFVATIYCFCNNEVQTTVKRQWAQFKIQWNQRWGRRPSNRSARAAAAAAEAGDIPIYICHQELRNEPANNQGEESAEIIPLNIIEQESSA
T1 sequence (looked up) 2: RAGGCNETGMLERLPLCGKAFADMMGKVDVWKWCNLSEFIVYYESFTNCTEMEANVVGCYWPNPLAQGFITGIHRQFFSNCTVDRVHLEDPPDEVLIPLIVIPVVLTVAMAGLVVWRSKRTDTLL


Each binder was assayed against T1, human amylin receptor (amylin 3(a) …) (assay: SPA displacement of 125I-rat amylin, hAmylin 3(a) receptor membranes).
Method in brief: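 One-site competition analysis of SPA counts yielded IC₅₀ as a measure of affinity. Membranes were at 35 ng/μL final; incubation was 120 min at 25° C, pH 7.4.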

| IC50 | Binder |
| --- | --- |
| 0.768 nM | K([AEEA-AEEA-γGlu-C20 diacid])CNTATCATQRLANFLRHSSPNFGAIPSSTNVGSETY-NH2 (disulfide 2-7; N-terminus assumed; SMILES CC[C@H](C)[C@H](NC(=O)[C@H](C)NC(=O)CNC(=O)[C@H](Cc1ccccc1)NC(=O)[C@H](CC(N)=O)NC(=O)[C@@H]1CCCN1C(=O)[C@H](CO)NC(=O)[C@H](CO)NC(=O)[C@H](Cc1c[nH]cn1)NC(=O)[C@H](CCCNC(=N)N)NC(=O)[C@H](CC(C)C)NC(=O)[C@H](Cc1ccccc1)NC(=O)[C@H](CC(N)=O)NC(=O)[C@H](C)NC(=O)[C@H](CC(C)C)NC(=O)[C@H](CCCNC(=N)N)NC(=O)[C@H](CCC(N)=O)NC(=O)[C@@H](NC(=O)[C@H](C)NC(=O)[C@@H]1CSSC[C@H](NC(=O)[C@@H](N)CCCCNC(=O)COCCOCCNC(=O)COCCOCCNC(=O)CC[C@H](NC(=O)CCCCCCCCCCCCCCCCCCC(=O)O)C(=O)O)C(=O)N[C@@H](CC(N)=O)C(=O)N[C@@H]([C@@H](C)O)C(=O)N[C@@H](C)C(=O)N[C@@H]([C@@H](C)O)C(=O)N1)[C@@H](C)O)C(=O)N1CCC[C@H]1C(=O)N[C@@H](CO)C(=O)N[C@@H](CO)C(=O)N[C@H](C(=O)N[C@@H](CC(N)=O)C(=O)N[C@H](C(=O)NCC(=O)N[C@@H](CO)C(=O)N[C@@H](CCC(=O)O)C(=O)N[C@H](C(=O)N[C@@H](Cc1ccc(O)cc1)C(N)=O)[C@@H](C)O)C(C)C)[C@@H](C)O, also called 25; compound 25) |
| 0.568 nM | K([AEEA-AEEA-γGlu-C20 diacid])CNTATCATQRLANFLRHSSPNFGAIPSSTNVGHNTY-NH2 (disulfide 2-7; N-terminus assumed; SMILES CC[C@H](C)[C@H](NC(=O)[C@H](C)NC(=O)CNC(=O)[C@H](Cc1ccccc1)NC(=O)[C@H](CC(N)=O)NC(=O)[C@@H]1CCCN1C(=O)[C@H](CO)NC(=O)[C@H](CO)NC(=O)[C@H](Cc1c[nH]cn1)NC(=O)[C@H](CCCNC(=N)N)NC(=O)[C@H](CC(C)C)NC(=O)[C@H](Cc1ccccc1)NC(=O)[C@H](CC(N)=O)NC(=O)[C@H](C)NC(=O)[C@H](CC(C)C)NC(=O)[C@H](CCCNC(=N)N)NC(=O)[C@H](CCC(N)=O)NC(=O)[C@@H](NC(=O)[C@H](C)NC(=O)[C@@H]1CSSC[C@H](NC(=O)[C@@H](N)CCCCNC(=O)COCCOCCNC(=O)COCCOCCNC(=O)CC[C@H](NC(=O)CCCCCCCCCCCCCCCCCCC(=O)O)C(=O)O)C(=O)N[C@@H](CC(N)=O)C(=O)N[C@@H]([C@@H](C)O)C(=O)N[C@@H](C)C(=O)N[C@@H]([C@@H](C)O)C(=O)N1)[C@@H](C)O)C(=O)N1CCC[C@H]1C(=O)N[C@@H](CO)C(=O)N[C@@H](CO)C(=O)N[C@H](C(=O)N[C@@H](CC(N)=O)C(=O)N[C@H](C(=O)NCC(=O)N[C@@H](Cc1c[nH]cn1)C(=O)N[C@@H](CC(N)=O)C(=O)N[C@H](C(=O)N[C@@H](Cc1ccc(O)cc1)C(N)=O)[C@@H](C)O)C(C)C)[C@@H](C)O, also called 97; compound 97) |
| 0.091 nM | K([AEEA-AEEA-γGlu-C20 diacid])CNTATCATQRLANFLRHSSPNFGAIPSSTNVGPNTY-NH2 (disulfide 2-7; N-terminus assumed; SMILES CC[C@H](C)[C@H](NC(=O)[C@H](C)NC(=O)CNC(=O)[C@H](Cc1ccccc1)NC(=O)[C@H](CC(N)=O)NC(=O)[C@@H]1CCCN1C(=O)[C@H](CO)NC(=O)[C@H](CO)NC(=O)[C@H](Cc1c[nH]cn1)NC(=O)[C@H](CCCNC(=N)N)NC(=O)[C@H](CC(C)C)NC(=O)[C@H](Cc1ccccc1)NC(=O)[C@H](CC(N)=O)NC(=O)[C@H](C)NC(=O)[C@H](CC(C)C)NC(=O)[C@H](CCCNC(=N)N)NC(=O)[C@H](CCC(N)=O)NC(=O)[C@@H](NC(=O)[C@H](C)NC(=O)[C@@H]1CSSC[C@H](NC(=O)[C@@H](N)CCCCNC(=O)COCCOCCNC(=O)COCCOCCNC(=O)CC[C@H](NC(=O)CCCCCCCCCCCCCCCCCCC(=O)O)C(=O)O)C(=O)N[C@@H](CC(N)=O)C(=O)N[C@@H]([C@@H](C)O)C(=O)N[C@@H](C)C(=O)N[C@@H]([C@@H](C)O)C(=O)N1)[C@@H](C)O)C(=O)N1CCC[C@H]1C(=O)N[C@@H](CO)C(=O)N[C@@H](CO)C(=O)N[C@H](C(=O)N[C@@H](CC(N)=O)C(=O)N[C@H](C(=O)NCC(=O)N1CCC[C@H]1C(=O)N[C@@H](CC(N)=O)C(=O)N[C@H](C(=O)N[C@@H](Cc1ccc(O)cc1)C(N)=O)[C@@H](C)O)C(C)C)[C@@H](C)O, also called 98; compound 98) |
| 0.444 nM | K([AEEA-γGlu-C20 diacid])CNTATCATQRLARFLRHSSPNFGAIPSSTPVGSNTY-NH2 (disulfide 2-7; N-terminus assumed; SMILES CC[C@H](C)[C@H](NC(=O)[C@H](C)NC(=O)CNC(=O)[C@H](Cc1ccccc1)NC(=O)[C@H](CC(N)=O)NC(=O)[C@@H]1CCCN1C(=O)[C@H](CO)NC(=O)[C@H](CO)NC(=O)[C@H](Cc1c[nH]cn1)NC(=O)[C@H](CCCNC(=N)N)NC(=O)[C@H](CC(C)C)NC(=O)[C@H](Cc1ccccc1)NC(=O)[C@H](CCCNC(=N)N)NC(=O)[C@H](C)NC(=O)[C@H](CC(C)C)NC(=O)[C@H](CCCNC(=N)N)NC(=O)[C@H](CCC(N)=O)NC(=O)[C@@H](NC(=O)[C@H](C)NC(=O)[C@@H]1CSSC[C@H](NC(=O)[C@@H](N)CCCCNC(=O)COCCOCCNC(=O)CC[C@H](NC(=O)CCCCCCCCCCCCCCCCCCC(=O)O)C(=O)O)C(=O)N[C@@H](CC(N)=O)C(=O)N[C@@H]([C@@H](C)O)C(=O)N[C@@H](C)C(=O)N[C@@H]([C@@H](C)O)C(=O)N1)[C@@H](C)O)C(=O)N1CCC[C@H]1C(=O)N[C@@H](CO)C(=O)N[C@@H](CO)C(=O)N[C@H](C(=O)N1CCC[C@H]1C(=O)N[C@H](C(=O)NCC(=O)N[C@@H](CO)C(=O)N[C@@H](CC(N)=O)C(=O)N[C@H](C(=O)N[C@@H](Cc1ccc(O)cc1)C(N)=O)[C@@H](C)O)C(C)C)[C@@H](C)O, also called 64; compound 64) |
| 0.166 nM | K([AEEA-AEEA-γGlu-C20 diacid])CNTATCATQRLANFLRHSSPNFGAIPSSTPVGSNTY-NH2 (disulfide 2-7; N-terminus assumed; SMILES CC[C@H](C)[C@H](NC(=O)[C@H](C)NC(=O)CNC(=O)[C@H](Cc1ccccc1)NC(=O)[C@H](CC(N)=O)NC(=O)[C@@H]1CCCN1C(=O)[C@H](CO)NC(=O)[C@H](CO)NC(=O)[C@H](Cc1c[nH]cn1)NC(=O)[C@H](CCCNC(=N)N)NC(=O)[C@H](CC(C)C)NC(=O)[C@H](Cc1ccccc1)NC(=O)[C@H](CC(N)=O)NC(=O)[C@H](C)NC(=O)[C@H](CC(C)C)NC(=O)[C@H](CCCNC(=N)N)NC(=O)[C@H](CCC(N)=O)NC(=O)[C@@H](NC(=O)[C@H](C)NC(=O)[C@@H]1CSSC[C@H](NC(=O)[C@@H](N)CCCCNC(=O)COCCOCCNC(=O)COCCOCCNC(=O)CC[C@H](NC(=O)CCCCCCCCCCCCCCCCCCC(=O)O)C(=O)O)C(=O)N[C@@H](CC(N)=O)C(=O)N[C@@H]([C@@H](C)O)C(=O)N[C@@H](C)C(=O)N[C@@H]([C@@H](C)O)C(=O)N1)[C@@H](C)O)C(=O)N1CCC[C@H]1C(=O)N[C@@H](CO)C(=O)N[C@@H](CO)C(=O)N[C@H](C(=O)N1CCC[C@H]1C(=O)N[C@H](C(=O)NCC(=O)N[C@@H](CO)C(=O)N[C@@H](CC(N)=O)C(=O)N[C@H](C(=O)N[C@@H](Cc1ccc(O)cc1)C(N)=O)[C@@H](C)O)C(C)C)[C@@H](C)O, also called 96; compound 96) |
| 0.172 nM | K([AEEA-γGlu-C20 diacid])CNTATCATQRLAAFLRHSSPNFGAIPSSTPVGSNTY-NH2 (disulfide 2-7; N-terminus assumed; SMILES CC[C@H](C)[C@H](NC(=O)[C@H](C)NC(=O)CNC(=O)[C@H](Cc1ccccc1)NC(=O)[C@H](CC(N)=O)NC(=O)[C@@H]1CCCN1C(=O)[C@H](CO)NC(=O)[C@H](CO)NC(=O)[C@H](Cc1c[nH]cn1)NC(=O)[C@H](CCCNC(=N)N)NC(=O)[C@H](CC(C)C)NC(=O)[C@H](Cc1ccccc1)NC(=O)[C@H](C)NC(=O)[C@H](C)NC(=O)[C@H](CC(C)C)NC(=O)[C@H](CCCNC(=N)N)NC(=O)[C@H](CCC(N)=O)NC(=O)[C@@H](NC(=O)[C@H](C)NC(=O)[C@@H]1CSSC[C@H](NC(=O)[C@@H](N)CCCCNC(=O)COCCOCCNC(=O)CC[C@H](NC(=O)CCCCCCCCCCCCCCCCCCC(=O)O)C(=O)O)C(=O)N[C@@H](CC(N)=O)C(=O)N[C@@H]([C@@H](C)O)C(=O)N[C@@H](C)C(=O)N[C@@H]([C@@H](C)O)C(=O)N1)[C@@H](C)O)C(=O)N1CCC[C@H]1C(=O)N[C@@H](CO)C(=O)N[C@@H](CO)C(=O)N[C@H](C(=O)N1CCC[C@H]1C(=O)N[C@H](C(=O)NCC(=O)N[C@@H](CO)C(=O)N[C@@H](CC(N)=O)C(=O)N[C@H](C(=O)N[C@@H](Cc1ccc(O)cc1)C(N)=O)[C@@H](C)O)C(C)C)[C@@H](C)O, also called 72; compound 72) |
